B1: progesterone receptor isoform B (PR-B), full-length, Strep II tagged (natural protein)
chain: MTELKAKGPRAPHVAGGPPSPEVGSPLLCRPAAGPFPGSQTSDTLPEVSAIPISLDGLLFPRPCQGQDPSDEKTQDQQSLSDVEGAYSRAEATRGAGGSSSSPPEKDSGLLDSVLDTLLAPSGPGQSQPSPPACEVTSSWCLFGPELPEDPPAAPATQRVLSPLMSRSGCKVGDSSGTAAAHKVLPRGLSPARQLLLPASESPHWSGAPVKPSPQAAAVEVEEEDGSESEESAGPLLKGKPRALGGAAAGGGAAAVPPGAAAGGVALVPKEDSRFSAPRVALVEQDAPMAPGRSPLATTVMDFIHVPILPLNHALLAARTRQLLEDESYDGGAGAASAFAPPRSSPCASSTPVAVGDFPDCAYPPDAEPKDDAYPLYSDFQPPALKIKEEEEGAEASARSPRSYLVAGANPAAFPDFPLGPPPPLPPRATPSRPGEAAVTAAPASASVSSASSSGSTLECILYKAEGAPPQQGPFAPPPCKAPGASGCLLPRDGLPSTSASAAAAGAAPALYPALGLNGLPQLGYQAAVLKEGLPQVYPPYLNYLRPDSEASQSPQYSFESLPQKICLICGDEASGCHYGVLTCGSCKVFFKRAMEGQHNYLCAGRNDCIVDKIRRKNCPACRLRKCCQAGMVLGGRKFKKFNKVRVVRALDAVALPQPVGVPNESQALSQRFTFSPGQDIQLIPPLINLLMSIEPDVIYAGHDNTKPDTSSSLLTSLNQLGERQLLSVVKWSKSLPGFRNLHIDDQITLIQYSWMSLMVFGLGWRSYKHVSGQMLYFAPDLILNEQRMKESSFYSLCLTMWQIPQEFVKLQVSQEEFLCMKVLLLLNTIPLEGLRSQTQFEEMRSSYIRELIKAIGLRQKGVVSSSQRFYQLTKLLDNLHDLVKQLHLYCLNTFIQSRALSVEFPEMMSEVIAAQLPKILAGMVKPLLFHKK
B2: progesterone receptor isoform A (PR-A), full-length, Strep II tagged (natural protein)
chain: MSRSGCKVGDSSGTAAAHKVLPRGLSPARQLLLPASESPHWSGAPVKPSPQAAAVEVEEEDGSESEESAGPLLKGKPRALGGAAAGGGAAAVPPGAAAGGVALVPKEDSRFSAPRVALVEQDAPMAPGRSPLATTVMDFIHVPILPLNHALLAARTRQLLEDESYDGGAGAASAFAPPRSSPCASSTPVAVGDFPDCAYPPDAEPKDDAYPLYSDFQPPALKIKEEEEGAEASARSPRSYLVAGANPAAFPDFPLGPPPPLPPRATPSRPGEAAVTAAPASASVSSASSSGSTLECILYKAEGAPPQQGPFAPPPCKAPGASGCLLPRDGLPSTSASAAAAGAAPALYPALGLNGLPQLGYQAAVLKEGLPQVYPPYLNYLRPDSEASQSPQYSFESLPQKICLICGDEASGCHYGVLTCGSCKVFFKRAMEGQHNYLCAGRNDCIVDKIRRKNCPACRLRKCCQAGMVLGGRKFKKFNKVRVVRALDAVALPQPVGVPNESQALSQRFTFSPGQDIQLIPPLINLLMSIEPDVIYAGHDNTKPDTSSSLLTSLNQLGERQLLSVVKWSKSLPGFRNLHIDDQITLIQYSWMSLMVFGLGWRSYKHVSGQMLYFAPDLILNEQRMKESSFYSLCLTMWQIPQEFVKLQVSQEEFLCMKVLLLLNTIPLEGLRSQTQFEEMRSSYIRELIKAIGLRQKGVVSSSQRFYQLTKLLDNLHDLVKQLHLYCLNTFIQSRALSVEFPEMMSEVIAAQLPKILAGMVKPLLFHKK
B3: steroid receptor coactivator 3 (SRC3), full-length, Strep II tagged (natural protein)
chain: not shown

Key:
[1] = molecular target: B3; experiment: HDX-MS
[2] = molecular target: T1, histone acetyltransferase p300, full-length, Strep II tagged (human, UniProt Q09472 1-2414); experiment: cross-linking
T1 sequence (Q09472 whole entry): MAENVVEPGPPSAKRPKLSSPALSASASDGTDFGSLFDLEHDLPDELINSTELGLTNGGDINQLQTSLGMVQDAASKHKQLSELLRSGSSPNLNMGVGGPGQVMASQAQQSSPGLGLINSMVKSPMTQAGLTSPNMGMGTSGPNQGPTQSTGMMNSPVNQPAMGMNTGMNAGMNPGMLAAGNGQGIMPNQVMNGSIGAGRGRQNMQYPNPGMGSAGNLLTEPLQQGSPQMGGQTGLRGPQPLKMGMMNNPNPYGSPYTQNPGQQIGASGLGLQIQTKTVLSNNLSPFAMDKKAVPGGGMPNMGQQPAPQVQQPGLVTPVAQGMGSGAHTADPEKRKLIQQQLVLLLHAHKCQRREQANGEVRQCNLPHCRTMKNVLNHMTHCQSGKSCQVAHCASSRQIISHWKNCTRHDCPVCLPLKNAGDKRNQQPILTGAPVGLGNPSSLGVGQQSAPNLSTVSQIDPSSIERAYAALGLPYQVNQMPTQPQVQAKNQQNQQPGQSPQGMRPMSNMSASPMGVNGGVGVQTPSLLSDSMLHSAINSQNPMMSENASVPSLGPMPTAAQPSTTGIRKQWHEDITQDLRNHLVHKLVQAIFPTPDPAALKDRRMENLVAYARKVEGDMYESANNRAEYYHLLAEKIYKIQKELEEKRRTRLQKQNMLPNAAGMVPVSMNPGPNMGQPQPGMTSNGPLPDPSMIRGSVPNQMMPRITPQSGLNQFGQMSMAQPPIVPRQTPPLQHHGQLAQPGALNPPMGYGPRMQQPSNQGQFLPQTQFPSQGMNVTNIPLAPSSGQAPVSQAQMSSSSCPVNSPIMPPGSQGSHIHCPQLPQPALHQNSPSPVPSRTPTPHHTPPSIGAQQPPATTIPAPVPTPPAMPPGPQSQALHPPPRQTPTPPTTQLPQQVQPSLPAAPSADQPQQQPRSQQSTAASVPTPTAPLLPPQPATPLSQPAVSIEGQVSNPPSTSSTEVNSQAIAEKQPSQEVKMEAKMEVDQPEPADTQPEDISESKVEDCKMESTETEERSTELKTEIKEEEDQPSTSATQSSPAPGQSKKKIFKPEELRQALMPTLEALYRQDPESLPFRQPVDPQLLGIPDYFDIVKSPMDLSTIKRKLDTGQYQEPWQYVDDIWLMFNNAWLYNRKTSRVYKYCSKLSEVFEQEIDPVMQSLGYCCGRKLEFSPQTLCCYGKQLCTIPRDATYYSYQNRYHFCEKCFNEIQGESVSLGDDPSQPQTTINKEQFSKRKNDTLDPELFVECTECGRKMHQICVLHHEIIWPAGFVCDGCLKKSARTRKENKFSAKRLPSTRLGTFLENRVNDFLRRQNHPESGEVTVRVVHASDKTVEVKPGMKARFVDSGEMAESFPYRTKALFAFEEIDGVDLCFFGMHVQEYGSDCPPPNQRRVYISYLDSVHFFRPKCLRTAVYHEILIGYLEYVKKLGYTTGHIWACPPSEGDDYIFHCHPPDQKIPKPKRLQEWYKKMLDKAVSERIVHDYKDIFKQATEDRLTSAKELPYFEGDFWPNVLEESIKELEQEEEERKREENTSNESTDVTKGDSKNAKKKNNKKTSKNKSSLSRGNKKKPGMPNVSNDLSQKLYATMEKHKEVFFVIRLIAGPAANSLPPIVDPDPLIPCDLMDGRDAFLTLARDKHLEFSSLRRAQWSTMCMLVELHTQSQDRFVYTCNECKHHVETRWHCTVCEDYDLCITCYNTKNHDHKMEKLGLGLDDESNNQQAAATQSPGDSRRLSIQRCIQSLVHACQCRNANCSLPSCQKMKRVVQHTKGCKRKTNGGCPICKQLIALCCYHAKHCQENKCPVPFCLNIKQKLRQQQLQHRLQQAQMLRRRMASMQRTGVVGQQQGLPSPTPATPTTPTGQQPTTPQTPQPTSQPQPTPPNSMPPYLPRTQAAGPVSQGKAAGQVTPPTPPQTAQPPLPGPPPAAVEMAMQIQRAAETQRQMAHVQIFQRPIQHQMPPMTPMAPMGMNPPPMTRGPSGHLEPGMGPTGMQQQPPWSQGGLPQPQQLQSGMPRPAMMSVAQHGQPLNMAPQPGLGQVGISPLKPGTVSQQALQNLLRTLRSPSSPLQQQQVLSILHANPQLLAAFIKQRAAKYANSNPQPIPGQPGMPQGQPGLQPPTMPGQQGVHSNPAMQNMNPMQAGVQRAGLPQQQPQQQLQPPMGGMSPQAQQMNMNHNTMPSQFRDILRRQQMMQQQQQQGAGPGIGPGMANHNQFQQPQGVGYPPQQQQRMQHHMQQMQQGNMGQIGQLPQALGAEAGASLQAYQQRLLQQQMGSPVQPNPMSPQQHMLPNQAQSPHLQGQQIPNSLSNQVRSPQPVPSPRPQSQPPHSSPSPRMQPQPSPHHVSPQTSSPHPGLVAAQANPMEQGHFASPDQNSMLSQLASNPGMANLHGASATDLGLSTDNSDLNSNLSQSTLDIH

[3] = molecular target: B2; experiment: SEC-MALS
[4] = molecular target: T1, histone acetyltransferase p300, …; experiment: HDX-MS

| Binder | binding result [1] | binding result [2] | stoichiometry N [3] | binding result [4] |
| --- | --- | --- | --- | --- |
| B1 | binds | binds | – | – |
| B2 | binds | binds | – | – |
| B3 | – | – | 0.5 SRC3 per PR-A | binds |

From publication PMC11398526 (bioRxiv, 2024)
